{
  "source": "paper PMC10454580",
  "about": "“Exploring the Binding Affinity of the ARR2 GARP DNA Binding Domain via Comparative Methods”",
  "settings_in_all_cases": "protein: recombinant; tags: N-terminal 8xHis-MBP; label: 5' biotin on antisense strand (DPI-ELISA); 5' Alexa647 on antisense strand (FCS); unlabeled (MST); blunt",
  "key": {"[1]": {"target": "T1, His8-MBP-GARP2 (ARR2 GARP DNA-binding domain) (UniProt Q9ZWJ9 211-275)", "T1 sequence": "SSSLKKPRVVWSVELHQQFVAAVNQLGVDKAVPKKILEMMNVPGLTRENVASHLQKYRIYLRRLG", "assay": "MST; thermophoresis 49/3; bounds 200.6-1912.2; MST: PBS-T, 250 nM protein, 25 nM RED-tris-NTA, 40% MST power, 22-26 C; FCS: PBS, 25 C; qDPI-ELISA: TBS/TBS-T (20 mM Tris, 0.18 M NaCl, pH 7.5, 0.1% Tween-20)"}, "[2]": {"target": "T1, His8-MBP-GARP2 (ARR2 GARP DNA-binding …)", "assay": "MST; T-jump region 2/1; ESP bounds 33.9-203.5; MST: PBS-T, 250 nM protein, 25 nM RED-tris-NTA, 40% MST power, 22-26 C; FCS: PBS, 25 C; qDPI-ELISA: TBS/TBS-T (20 mM Tris, 0.18 M NaCl, pH 7.5, 0.1% Tween-20)"}, "[3]": {"target": "T1, His8-MBP-GARP2 (ARR2 GARP DNA-binding …)", "assay": "MST; thermophoresis 410/3; bounds 211.1-2267.5; MST: PBS-T, 250 nM protein, 25 nM RED-tris-NTA, 40% MST power, 22-26 C; FCS: PBS, 25 C; qDPI-ELISA: TBS/TBS-T (20 mM Tris, 0.18 M NaCl, pH 7.5, 0.1% Tween-20)"}, "[4]": {"target": "T1, His8-MBP-GARP2 (ARR2 GARP DNA-binding …)", "assay": "MST; thermophoresis 46/3; bounds 192.7-1173.8; MST: PBS-T, 250 nM protein, 25 nM RED-tris-NTA, 40% MST power, 22-26 C; FCS: PBS, 25 C; qDPI-ELISA: TBS/TBS-T (20 mM Tris, 0.18 M NaCl, pH 7.5, 0.1% Tween-20)"}, "[5]": {"target": "T1, His8-MBP-GARP2 (ARR2 GARP DNA-binding …)", "assay": "MST; thermophoresis 45/3; bounds 218.2-1077.2; MST: PBS-T, 250 nM protein, 25 nM RED-tris-NTA, 40% MST power, 22-26 C; FCS: PBS, 25 C; qDPI-ELISA: TBS/TBS-T (20 mM Tris, 0.18 M NaCl, pH 7.5, 0.1% Tween-20)"}, "[6]": {"target": "T1, His8-MBP-GARP2 (ARR2 GARP DNA-binding …)", "assay": "MST; thermophoresis 41/3; bounds 250.9-787.3; MST: PBS-T, 250 nM protein, 25 nM RED-tris-NTA, 40% MST power, 22-26 C; FCS: PBS, 25 C; qDPI-ELISA: TBS/TBS-T (20 mM Tris, 0.18 M NaCl, pH 7.5, 0.1% Tween-20)"}, "[7]": {"target": "T1, His8-MBP-GARP2 (ARR2 GARP DNA-binding …)", "assay": "MST; thermophoresis 43/3; bounds 260.4-960.9; MST: PBS-T, 250 nM protein, 25 nM RED-tris-NTA, 40% MST power, 22-26 C; FCS: PBS, 25 C; qDPI-ELISA: TBS/TBS-T (20 mM Tris, 0.18 M NaCl, pH 7.5, 0.1% Tween-20)"}, "[8]": {"target": "T1, His8-MBP-GARP2 (ARR2 GARP DNA-binding …)", "assay": "MST; thermophoresis 44/3; bounds 229.7-868.7; MST: PBS-T, 250 nM protein, 25 nM RED-tris-NTA, 40% MST power, 22-26 C; FCS: PBS, 25 C; qDPI-ELISA: TBS/TBS-T (20 mM Tris, 0.18 M NaCl, pH 7.5, 0.1% Tween-20)"}, "[9]": {"target": "T1, His8-MBP-GARP2 (ARR2 GARP DNA-binding …)", "assay": "MST; thermophoresis 47/3; bounds 202.0-1474.6; MST: PBS-T, 250 nM protein, 25 nM RED-tris-NTA, 40% MST power, 22-26 C; FCS: PBS, 25 C; qDPI-ELISA: TBS/TBS-T (20 mM Tris, 0.18 M NaCl, pH 7.5, 0.1% Tween-20)"}, "[10]": {"target": "T1, His8-MBP-GARP2 (ARR2 GARP DNA-binding …)", "assay": "MST; inverse T-jump 6/5; bounds 471.3-1412.8; MST: PBS-T, 250 nM protein, 25 nM RED-tris-NTA, 40% MST power, 22-26 C; FCS: PBS, 25 C; qDPI-ELISA: TBS/TBS-T (20 mM Tris, 0.18 M NaCl, pH 7.5, 0.1% Tween-20)"}, "[11]": {"target": "T1, His8-MBP-GARP2 (ARR2 GARP DNA-binding …)", "assay": "MST; thermophoresis 42/3; bounds 259.5-988.2; MST: PBS-T, 250 nM protein, 25 nM RED-tris-NTA, 40% MST power, 22-26 C; FCS: PBS, 25 C; qDPI-ELISA: TBS/TBS-T (20 mM Tris, 0.18 M NaCl, pH 7.5, 0.1% Tween-20)"}, "[12]": {"target": "T1, His8-MBP-GARP2 (ARR2 GARP DNA-binding …)", "assay": "MST; thermophoresis 48/3; bounds 240.8-1742.8; MST: PBS-T, 250 nM protein, 25 nM RED-tris-NTA, 40% MST power, 22-26 C; FCS: PBS, 25 C; qDPI-ELISA: TBS/TBS-T (20 mM Tris, 0.18 M NaCl, pH 7.5, 0.1% Tween-20)"}, "[13]": {"target": "T1, His8-MBP-GARP2 (ARR2 GARP DNA-binding …)", "assay": "MST; back diffusion 8/7; bounds 61.0-374.4; MST: PBS-T, 250 nM protein, 25 nM RED-tris-NTA, 40% MST power, 22-26 C; FCS: PBS, 25 C; qDPI-ELISA: TBS/TBS-T (20 mM Tris, 0.18 M NaCl, pH 7.5, 0.1% Tween-20)"}},
  "data": [
    {"binder": "wtOligo (ARR5 promoter fragment) (dsDNA) DNA 1: TTAACAATCTCAAAGATTTTGTAGATTGAAATACAAATCTTCTCT DNA 2: AGAGAAGATTTGTATTTCAATCTACAAAATCTTTGAGATTGTTAA", "values": [
      {"measurement": "Kd", "setting": "[1]", "value": "660 ± 419", "unit": "nM"},
      {"measurement": "Kd", "setting": "[2]", "value": "93.3 ± 40.3", "unit": "nM"},
      {"measurement": "Kd", "setting": "[3]", "value": "738 ± 505", "unit": "nM"},
      {"measurement": "Kd", "setting": "[4]", "value": "506 ± 246", "unit": "nM"},
      {"measurement": "Kd", "setting": "[5]", "value": "510 ± 212", "unit": "nM"},
      {"measurement": "Kd", "setting": "[6]", "value": "456 ± 132", "unit": "nM"},
      {"measurement": "Kd", "setting": "[7]", "value": "520 ± 172", "unit": "nM"},
      {"measurement": "Kd", "setting": "[8]", "value": "462 ± 163", "unit": "nM"},
      {"measurement": "Kd", "setting": "[9]", "value": "578 ± 317", "unit": "nM"},
      {"measurement": "Kd", "setting": "[10]", "value": "826 ± 222", "unit": "nM"},
      {"measurement": "Kd", "setting": "[11]", "value": "526 ± 178", "unit": "nM"},
      {"measurement": "Kd", "setting": "[12]", "value": "679 ± 376", "unit": "nM"},
      {"measurement": "Kd", "setting": "[13]", "value": "166 ± 74.3", "unit": "nM"}
    ]}
  ]
}
